The series has as its system T1, biotinylated 13-mer peptide LCTPSKGSLFTGR (native Mtb motif with arginine to lysine substitution at position 6).
T1 sequence: LCTPSKGSLFTGR

The values below come from US8729232.

Take “Mycobacterium tuberculosis formylglycine generating enzyme (Mtb FGE, Rv0712), recombinant”: the “FGly conversion detected by MALDI-TOF” value was “A peak indicating the FGly-modified species appeared”.
